We go through two molecules from US20200291071A1.

Usually Kd stands for the equilibrium constant for the complex coming apart.

In data set [1] the target is r6,Glm-Tei-pseudoaglycone (compound 12). Nature of the data set: ITC (isothermal titration calorimetry), exothermic injections, sigmoidal isotherm over molar ratio about 0.45 to 1.85.
The target is the same in data set [2]. Nature of the data set: ITC. (Isothermal titration calorimetry measures the heat released or taken up as one component is titrated into another.)
Data set [3] concerns the target r4,Glm-Tei-pseudoaglycone (compound 6).
Data set [4] addresses r6,Glm-Tei-pseudoaglycone (compound 12).

In the case of “Dbv27 (methyltransferase encoded by gene dbv27) (enzyme)”, the Kd in data set [1] was 5.1 µM; in data set [2] it was 5 µM.

B1: Orf11*S (acyltransferase, single mutant W163A of Orf11*) (protein)
chain: MGSSHHHHHHSSGLVPRGSHMMMDPETVRIALGLEERTAAWLTELDELGPPAEPVRLPRGEEARDLLRRLEVPELDAEEIVAAAPDPDRDPALWWLLERTHHAIVRHMGDHRAKPRGGPPLPYEGGAAARYFHVYVFLATVPAVRRFHAERGIPDEVGWETLTQLGELVAIHRRKYGQGGMNMQAWTTYHLRGILYRLGRLQFSLATGKDGTPHLGLHVPEWGGPLLPKAYDESLHRARPFFDRHFPEHGARVAWGSSWMLDPQLEEYLTEDSNIIQLARFWTLTDSAPEPGNADGDSSILEFVFRYNGQPLDELPQRSSLERAVIAHLKAGRHWHMRTGFVKLP
As to B1, the “Km (acyl-transfer kinetics, HPLC)” value in data set [3] was “Km=0.07 mM”; in data set [4] it was “Km=0.3±0.03 mM”.
